Results reported in patent publication US20160083733A1, “NOVEL TREATMENT OF METABOLIC DISEASES” (UNIVERSITY OF BREMEN, priority 2013, published 2016).

B1: dnJNK1: dominant negative mutant of JNK1 expressed from plasmid pCDNA3 Jnk1a1 (apf) (protein, UniProt P45983 1-427, looked up, variant T183A Y185F)
Mitogen-activated protein …: MSRSKRDNNFYSVEIGDSTFTVLKRYQNLKPIGSGAQGIVCAAYDAILERNVAIKKLSRPFQNQTHAKRAYRELVLMKCVNHKNIIGLLNVFTPQKSLEEFQDVYIVMELMDANLCQVIQMELDHERMSYLLYQMLCGIKHLHSAGIIHRDLKPSNIVVKSDCTLKILDFGLARTAGTSFMMAPFVVTRYYRAPEVILGMGYKENVDLWSVGCIMGEMVCHKILFPGRDYIDQWNKVIEQLGTPCPEFMKKLQPTVRTYVENRPKYAGYSFEKLFPDVLFPADSEHNKLKASQARDLLSKMLVIDASKRISVDEALQHPYINVWYDPSEAEAPPPKIPDKQLDEREHTIEEWKELIYKEVMDLEERTKNGVIRGQPSPLGAAVINGSQHPSSSSSVNDVSSMSTDPTLASDTDSSLEAAAGPLGCCR
B2: dnMST1: kinase-dead, dominant negative MST1 mutant (K59R) expressed from plasmid (protein, UniProt Q13043 1-487, looked up, variant K59R)
Serine/threonine-protein …: METVQLRNPPRRQLKKLDEDSLTKQPEEVFDVLEKLGEGSYGSVYKAIHKETGQIVAIRQVPVESDLQEIIKEISIMQQCDSPHVVKYYGSYFKNTDLWIVMEYCGAGSVSDIIRLRNKTLTEDEIATILQSTLKGLEYLHFMRKIHRDIKAGNILLNTEGHAKLADFGVAGQLTDTMAKRNTVIGTPFWMAPEVIQEIGYNCVADIWSLGITAIEMAEGKPPYADIHPMRAIFMIPTNPPPTFRKPELWSDNFTDFVKQCLVKSPEQRATATQLLQHPFVRSAKGVSILRDLINEAMDVKLKRQESQQREVDQDDEENSEEDEMDSGTMVRAVGDEMGTVRVASTMTDGANTMIEHDDTLPSQLGTMVINAEDEEEEGTMKRRDETMQPAKPSFLEYFEQKEKENQINSFGKSVPGPLKNSSDWKIPQDGDYEFLKSWTVEDLQKRLLALDPMMEQEIEEIRQKYQSKRQPILDAIEAKKRRQQNF

Assays:
human islets = assay: MST1 overexpression (Ad-MST1)-induced apoptosis in human islets; type: cell-based; conditions: Ad-MST1 48 h
Source text: (§1) Human islets were isolated from twenty pancreases of healthy organ donors and from five with T2D at the University of Illinois at Chicago or Lille University and cultured on extracellular matrix (ECM) coated dishes (Novamed, Jerusalem, Israel) as described previously (Schulthess et al., Cell. Metab. 9 (2009) 125-139). Islet purity was greater than 95% as judged by dithizone staining (if this degree of purity was not achieved by routine isolation, islets were handpicked). Islets from MST1^−/− mice and their WT littermates were isolated as described previously (Schulthess et al., Cell. Metab. 9 (2009) 125-139). […]
Pancreatic tissues were processed as previously described (Shu et al., Diabetes 57 (2007), 645-53). […] Slides were mounted with Vectashield with 4′6-diamidino-2-phenylindole (DAPI) (Vector Labs). β-cell apoptosis for mouse sections or primary islets cultured on ECM dishes was analyzed by the terminal deoxynucleotidyl transferase-mediated dUTP nick-end labeling (TUNEL) technique according to the manufacturer's instructions (In Situ Cell Death Detection Kit, TMR red; Roche) and double stained for insulin. Fluorescence was analyzed using a Nikon MEA53200 (Nikon GmbH, Dusseldorf, Germany) microscope and images were acquired using NIS-Elements software (Nikon). […]

PDX1 = PDX1 protein level, degradation and ubiquitination in HEK293 cells co-transfected with MST1; type: cell-based, mouse; conditions: co-transfection with PDX1 in HEK293 cells
Source text: pCMV-myc-MST1 and kinase-dead (MST1-K59; dnMST1) are described in Yamamoto et al., J. Clin. Invest. 111 (2003), 1463-1474. Mouse pB.RSV.PDX1-GFP is described in Kawamori et al., Diabetes 52 (2003) 2896-2904. pcDNA3 Myr-HA Akt1, HA-Ubiquitin and pCDNA3 Jnk1a1 (apf)(dn-JNK) plasmids were obtained from Addgene (Cambridge, Mass.). Mouse PDX1 mutants (T11, T126, T152, T155, T214 and T231) in pCGIG5 vector were generated by site-directed mutagenesis as described previously (Frogne et al., 7 (2012), e35233). All mutations were verified by sequencing. To make bacterial expression plasmids for PDX1 mutants, the complete mouse PDX1 CDS (wild type and mutants) has been amplified by PCR using a specific set of primers from pCGIG5 plasmids and cloned into a pGEX-6P-1 bacterial expression vector. The rat insulin driven luciferase vector (RIP-Luc) was constructed by subcloning a 700 by fragment containing −660 bp of the rat 2 insulin promoter into a pMCS-Green-Renilla-Luc vector (Thermo Scientific). pCMV-Red firefly Luc vector was obtained from Thermo Scientific.
HEK293 cells were cultured in 10-cm cell culture dishes and transfected with HA-ubiquitin, PDX1 and MST1 expression plasmids for 48 h. For ubiquitination in human islets, 5000 islets per condition were transfected with ubiquitin plasmid. After 24 h, islets were infected with Ad-GFP or Ad-MST1 for 6 h and kept for another 48 h. […]

INS-1E cells = assay: Apoptotic markers, cytochrome c release and PDX1 in INS-1E cells under diabetogenic conditions; type: cell-based, rat; conditions: 33.3 mM glucose for 48 h, overexpression of dnMST1
Source text: as §1
At the end of the incubation periods, islets and INS1E cells were washed in ice-cold PBS and lysed in lysis buffer containing 20 mM Tris acetate, 0.27 M sucrose, 1 mM EDTA, 1 mM EGTA, 50 mM NaF, 1% Triton X-100, 5 mM sodium pyrophosphate and 10 mM β-glycerophosphate. […] Protein concentrations were determined with the BCA protein assay (Pierce). […] Membrane was developed using a chemiluminescence assay system (Pierce) and analyzed using DocIT®LS image acquisition 6.6a (UVP BioImaging Systems, Upland, Calif., USA). […]

Molecule	MST1-induced increase in Bim and subsequent caspase-3 cleavage (human islets)	PDX1 level (PDX1)	glucose-induced caspase-3 and PARP cleavage (INS-1E cells)
B1	prevented	–	–
B2	–	no effect	completely inhibited
